A word on the Ki: it is a dissociation constant, usually derived from enzyme kinetics or from competition with a known ligand. Low readings indicate tighter binding, high ones weaker binding.

Where only a bound is given, the exact number is not on record here.

Test [1] addresses T1, rat GALR2 (rat).
T1 chain: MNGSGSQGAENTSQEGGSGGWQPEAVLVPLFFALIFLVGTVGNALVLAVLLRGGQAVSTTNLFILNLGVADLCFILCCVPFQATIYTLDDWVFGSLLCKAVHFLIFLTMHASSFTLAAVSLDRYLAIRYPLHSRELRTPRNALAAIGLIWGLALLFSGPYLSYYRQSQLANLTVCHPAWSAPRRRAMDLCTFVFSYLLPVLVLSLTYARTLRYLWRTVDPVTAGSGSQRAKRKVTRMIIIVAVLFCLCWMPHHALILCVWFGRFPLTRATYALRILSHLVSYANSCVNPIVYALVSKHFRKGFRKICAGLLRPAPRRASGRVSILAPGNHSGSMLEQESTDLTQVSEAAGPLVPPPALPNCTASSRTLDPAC
As to the kind of experiment: competition, radioligand CHO.

In a further test the target is T2, human GALR2 (human).
T2 chain: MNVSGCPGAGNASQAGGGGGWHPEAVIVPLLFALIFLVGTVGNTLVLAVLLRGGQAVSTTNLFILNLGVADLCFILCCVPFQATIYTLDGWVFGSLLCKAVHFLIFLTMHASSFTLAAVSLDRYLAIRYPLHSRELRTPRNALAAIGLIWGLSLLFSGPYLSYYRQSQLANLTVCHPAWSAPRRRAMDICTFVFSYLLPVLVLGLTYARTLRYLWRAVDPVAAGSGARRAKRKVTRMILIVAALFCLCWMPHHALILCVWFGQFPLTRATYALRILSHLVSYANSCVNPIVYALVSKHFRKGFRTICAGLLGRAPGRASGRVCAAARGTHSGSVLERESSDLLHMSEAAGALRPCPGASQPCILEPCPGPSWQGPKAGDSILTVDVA
As to the kind of experiment: competition, radioligand COS-7.

Test [2] deals with T1, rat GALR2. As to the kind of experiment: competition, radioligand COS-7.
The next test addresses T3, rat GALR1 (rat, UniProt Q62805).
T3 chain: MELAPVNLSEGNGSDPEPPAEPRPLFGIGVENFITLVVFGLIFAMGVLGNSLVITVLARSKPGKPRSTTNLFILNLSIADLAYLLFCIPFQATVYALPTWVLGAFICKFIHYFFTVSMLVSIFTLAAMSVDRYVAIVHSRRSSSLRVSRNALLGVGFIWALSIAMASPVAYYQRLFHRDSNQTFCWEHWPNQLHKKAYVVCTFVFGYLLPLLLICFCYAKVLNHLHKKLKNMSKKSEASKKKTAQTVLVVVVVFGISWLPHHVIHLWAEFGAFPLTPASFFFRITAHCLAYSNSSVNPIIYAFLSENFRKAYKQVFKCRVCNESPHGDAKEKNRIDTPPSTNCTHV
As to the kind of experiment: competition, radioligand COS-7.

For test [3], the target named is T1, rat GALR2. As to the kind of experiment: competition, radioligand COS-7.

For MPRGCALLL [porcine galanin 1-9], the Ki in the test with rat GALR2 [1] is greater than 1000 nM.
On the same count and under the same terms, to LASLLLASALSATLGLGSPVK [porcine galanin 9-29] belongs greater than 1000 nM.
On to MPRGCALLLASLLLAS [galanin (1-16)], for which the values for the Ki in the test with human GALR2 and with rat GALR2 [2] were 15 nM and 1.74 nM, respectively.

B1: human galanin (protein)
chain: KRGWTLNSAGYLLGPHAVGNHRSFSDKNGLTSKRELRPEDDMKPGSFDRSIPENNIMRTIIEFLSFLHLKEAGALDRLLDLPAAASSEDIERS
B1: in the test with rat GALR2 [1], the Ki came to 1.2 nM.
Still for that read-out and setting: to ALSATLGLGSPVK [porcine galanin 17-29] belongs greater than 1000 nM.
In the case of MPRGCALLLASLLLASALSATLGLGSPVK [porcine galanin (1-29)], the Ki with human GALR2 came to 0.72 nM; in the test with rat GALR1, 0.457 nM.
In the case of RGCALLLASLLLASALSATLGLGSPVK [porcine galanin (3-29)], in the test with rat GALR2 [2], the inhibition constant (Ki) is greater than 100000 nM.
With MARGSVILLAWLLLVATLSATLGLGMPTK [rat galanin], the Ki in the test with human GALR2 came out at 1 nM; in the test with rat GALR2 [3] it was 0.52 nM.

Values taken from patent US7132248 (dated 2006).
